Source: PMC10465527

Biological target: B55α/δ regulatory subunit of PP2A (human (endogenous in HAP1)) (UniProt P63151)
Assay: co-IP; B56α (1D3-E12) or B55α/δ (2G9) antibody crosslinked to protein G-Sepharose, 1 h with lysates of HAP1 wild-type and lcmt1-/- cells; lysis buffer 10% glycerol, 135 mM NaCl, 20 mM Tris pH 8.0, 1% Nonidet P-40; immunoblot, co-precipitated A and C normalised to the B subunit

UniProt P63151, sequence (P63151 whole entry, stated change not applied): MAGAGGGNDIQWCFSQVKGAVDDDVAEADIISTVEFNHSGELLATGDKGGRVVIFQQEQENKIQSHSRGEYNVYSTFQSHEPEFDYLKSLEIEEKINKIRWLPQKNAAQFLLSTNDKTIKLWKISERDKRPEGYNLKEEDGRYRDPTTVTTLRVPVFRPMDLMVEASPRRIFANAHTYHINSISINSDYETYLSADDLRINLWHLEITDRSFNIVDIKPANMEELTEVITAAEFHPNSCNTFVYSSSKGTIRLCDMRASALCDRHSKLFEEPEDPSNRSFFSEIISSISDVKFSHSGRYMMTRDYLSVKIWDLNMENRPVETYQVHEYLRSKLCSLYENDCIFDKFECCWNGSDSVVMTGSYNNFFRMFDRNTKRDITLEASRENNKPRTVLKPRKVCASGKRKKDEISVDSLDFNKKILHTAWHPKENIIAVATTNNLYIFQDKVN

trimeric holoenzyme level relative to wild-type cells (of the levels in wild-type cells): 0.33
Substance: non-methylated PP2A-C (catalytic C subunit of PP2A) (from UniProt P67775 1-309) (natural protein)
